Test results reported in the supplement of paper PMC7877785.
± gives the uncertainty stated by the source.

Experiment: self-splicing fitness, log relative to wild type (ln ratio); higher = more splicing; Tetrahymena group I intron in knt gene, E. coli kanamycin selection, DiMSum; sequences stand for … in CUCUCU…GGAGGGAAAAGUUAUCAGGCAUGCACCUGGUAGCUAGUCUUUAAACCAAUAGAUUGCAUCGGUUUAAAAGGCAAGACCGUCAAAUUGCGGGAAAGGGGUCAACAGCCGUUCAGUACCAAGUCUCAGGGGAAACUUUGAGAUGGCCUUGCAAAGGGUAUGGUAAUAAGCUGACGGACAUGGUCCUAACCACGCAGCCAAGUCCUAAGUCAACAGAUCUUCUGUUGAUAUGGAUGCAGUUCACAGACUAAAUGUCGGUCGGGGAAGAUGUAUUCUUCUCAUAAGAUAUAGUCGGACCUCUCCUUAAUGGGAGCUAGCGGAUGAAGUGAUGCAACACUGGAGCCGCUGGGAACUAAUUUGUAUGCGAAAGUAUAUUGAUUAGUUUUGGAGUACUCGUGGUCG
Method in brief: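 Colonies from six replicate transformations of E. coli BL21(DE3) were pooled and amplicon-sequenced on an Illumina HiSeq 2500. The library placed an intron with all eight P1ex-region nucleotides randomised inside the knt kanamycin-resistance gene on pET-22b(+), and cells grew overnight at 37°C or 30°C on LB agar with or without 25 μg/mL kanamycin (plus 100 μg/mL carbenicillin, 50 μM IPTG, 0.2% rhamnose). Fitness is the DiMSum error-weighted combination of wild-type-normalised replicate fold changes, kanamycin versus none.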

Sequence | self-splicing fitness (ln) (30 °C) | self-splicing fitness (ln) (37 °C)
CCGCAGCAAUAUUACGCGGG | -4.07 ± 0.14 | -3.74 ± 0.12
CCGCAGCAAUAUUACGCUAG | -1.53 ± 0.1 | -2.05 ± 0.12
CCGCAGCAAUAUUACGCUUC | -4.17 ± 0.46 | 
CCGCAGCAAUAUUACGGACC | -3.45 ± 0.41 | 
CCGCAGCAAUAUUACGGAGA | -2.53 ± 0.17 | -2.36 ± 0.21
CCGCAGCAAUAUUACGGCAU | -3.29 ± 0.2 | -2.38 ± 0.17
CCGCAGCAAUAUUACGGGCG | -2.13 ± 0.11 | -1.95 ± 0.12
CCGCAGCAAUAUUACGGGUC | -3.86 ± 0.18 | -2.69 ± 0.19
CCGCAGCAAUAUUACGGUGC | -2.98 ± 0.18 | -2.63 ± 0.22
CCGCAGCAAUAUUACGUAAU | -3.78 ± 0.15 | -2.3 ± 0.19
CCGCAGCAAUAUUACGUACA | -2.89 ± 0.16 | -2.4 ± 0.23
CCGCAGCAAUAUUACGUAUA | -3.6 ± 0.16 | -3.03 ± 0.19
CCGCAGCAAUAUUACGUCAG | -0.624 ± 0.054 | 0.0667 ± 0.065
CCGCAGCAAUAUUACGUCGG | -3.9 ± 0.21 | -2.28 ± 0.2
CCGCAGCAAUAUUACGUGCG | -4.67 ± 0.22 | -2.86 ± 0.15
CCGCAGCAAUAUUACGUGUA | -3.25 ± 0.17 | -1.38 ± 0.13
CCGCAGCAAUAUUACGUUCA | -3.89 ± 0.27 | -2 ± 0.16
CCGCAGCAAUAUUACGUUGC | -3.32 ± 0.14 | -2.7 ± 0.21
CCGGAGCAAUAUUACGAUUC |  | -2.85 ± 0.38
CCGGAGCAAUAUUACGCCUU | -2.67 ± 0.36 | -3.35 ± 0.47
CCGGAGCAAUAUUACGCUAC | -2.55 ± 0.49 | 
CCGGAGCAAUAUUACGCUUA | -2.45 ± 0.24 | -3.19 ± 0.35
CCGGAGCAAUAUUACGGAGG |  | -2.35 ± 0.25
CCGGAGCAAUAUUACGGGAU | -3.11 ± 0.36 | -2.44 ± 0.25
CCGGAGCAAUAUUACGUAUA | -3.21 ± 0.23 | -2.49 ± 0.36

Sequence | self-splicing fitness (ln) (30 °C) | self-splicing fitness (ln) (37 °C)
CCGGAGCAAUAUUACGUAUG | -1.41 ± 0.071 | -0.561 ± 0.083
CCGGAGCAAUAUUACGUCAC | -3.61 ± 0.34 | -2.71 ± 0.38
CCGGAGCAAUAUUACGUCCU | -4.9 ± 0.31 | -2.29 ± 0.16
CCGGAGCAAUAUUACGUCUG | -1.22 ± 0.14 | -0.402 ± 0.16
CCGGAGCAAUAUUACGUUUA |  | -1.99 ± 0.25
CCGUAGCAAUAUUACGAGAG | -3.86 ± 0.29 | -2.54 ± 0.24
CCGUAGCAAUAUUACGAUAU | -2 ± 0.19 | -3.31 ± 0.43
CCGUAGCAAUAUUACGCCAG | -1.17 ± 0.16 | -0.533 ± 0.22
CCGUAGCAAUAUUACGCCUA | -3.02 ± 0.34 | -2.11 ± 0.27
CCGUAGCAAUAUUACGCUCU | -2.65 ± 0.37 | -2.48 ± 0.39
CCGUAGCAAUAUUACGCUGU | -3.79 ± 0.25 | -3.17 ± 0.26
CCGUAGCAAUAUUACGGAAA | -3.22 ± 0.42 | -2.52 ± 0.46
CCGUAGCAAUAUUACGGACA | -1.88 ± 0.35 | 
CCGUAGCAAUAUUACGGCAU | -3.15 ± 0.23 | -2.85 ± 0.25
CCGUAGCAAUAUUACGGCCU | -1.36 ± 0.14 | -2.7 ± 0.41
CCGUAGCAAUAUUACGGCGC | -3.01 ± 0.33 | -1.48 ± 0.32
CCGUAGCAAUAUUACGGGGA | -3.45 ± 0.25 | -3.11 ± 0.25
CCGUAGCAAUAUUACGGUCG | -0.844 ± 0.074 | -0.447 ± 0.095
CCGUAGCAAUAUUACGGUGA | -3.66 ± 0.26 | -2.45 ± 0.25
CCGUAGCAAUAUUACGGUGG | -2.59 ± 0.16 | -1.1 ± 0.17
CCGUAGCAAUAUUACGUAAG | 0.191 ± 0.047 | 0.106 ± 0.062
CCGUAGCAAUAUUACGUAGG | -3.19 ± 0.17 | -1.87 ± 0.19
CCGUAGCAAUAUUACGUCAU | -3.33 ± 0.24 | -2.32 ± 0.28
CCGUAGCAAUAUUACGUCGA | -1.93 ± 0.14 | -1.57 ± 0.13
CCGUAGCAAUAUUACGUCUG | -0.102 ± 0.054 | 0.303 ± 0.067
